In this test the target is Oregon-Green-labelled actin monomers (OG-actin) (UniProt P68135). In words: stopped-flow fluorescence kinetics.

Usually kon stands for the rate constant with which the complex forms. A higher kon goes with faster complex formation. In turn, “EVH2 domain of human VASP (hEVH2) (domain or fragment)” gave a kon of 1.2e+07 to 1.8e+07 M⁻¹ s⁻¹.

The values are drawn from PMC3034019.
